Source: patent publication US20100144838A1, “Methods for Identifying Modulators of Pyrimidine Tract Binding Protein” (priority 2008, published 2010)

B1: PTBsi3: siRNA targeting PTB mRNA, DOX-induced, generated in a cell from shRNA3 (SEQ ID NO: 5 and 6) (nucleic acid)
chain 1: GATCCCTGACAAGAGCCGTGACTACTTCAAGAGAGTAGTCACGGCTCTTGTCATTTTTGGAAA
chain 2: AGCTTTTCCAAAAATGACAAGAGCCGTGACTACTCTCTTGAAGTAGTCACGGCTCTTGTCAGGG
B2: PTBsi1: siRNA targeting PTB mRNA, DOX-induced, generated in a cell from shRNA1 (SEQ ID NO: 1 and 2) (nucleic acid)
chain 1: GATCCCCAGGTGACAGCCGAAGTGCATTCAAGAGATGCACTTCGGCTGTCACCTTTTTTGGAAA
chain 2: AGCTTTTCCAAAAATGCACTTCGGCTGTCACCTTCTCTTGAAAGGTGACAGCCGAAGTGCAGGG

Columns and labels:
A2780 sublines = assay: Tumor growth in xenograft mouse model; format: in vivo, Athymic nu/nu mice; settings: subcutaneous A2780 sublines; DOX 2 mg/ml in drinking water from inoculation or 12 days after; FIG. 3
Description: siRNA technology was .used to knock down the expression of PTB in tumor cells and to examine the effects of such manipulations on cell growth and malignant properties. Three siRNA (PTBsi1, PTBsi2, and PTBsi3) sequences targeting different regions of PTB mRNA were used. A siRNA can be generated as described in PCT/US2007/007352, which is herein fully incorporated by reference. Each of PTBsi1, PTBsi2, and PTBsi3 may be generated in a cell from a shRNA, which is formed after transcription of its coding sequence. The annealing of two oligonucleotides generates a DNA fragment with protruding ends compatible with Hind III and Bgl II restriction enzyme sites respectively. The coding sequences for each siRNA were cloned individually into a lentiviral vector downstream of H1 promoter and tetO element and thus the expression of these siRNAs is under control of doxycycline (DOX) (i.e. induced by DOX). We established several stable sublines carrying these expression cassettes. […] We have also examined whether knockdown of PTB could influence ovarian tumor cell growth in xenograft mouse model. […] Invasive cells were counted under microscope with high magnification (150×). […] Tumor sizes were measured in long and short dimensions every three or four days. Tumor size was calculated with formula axb2/2, where a=long dimension and b=short dimension. […]

PTB = assay: Gene expression profiling, Affymetrix HG-U133 plus 2 oligonucleotide arrays; format: cell-based; settings: A2780/PTBsi3 cells treated with DOX
Protocol: Microarray analyses of genome-wide splicing patterns and gene expression profiling were performed in A2780/PTBsi3 cells with or without PTB knockdown. Gene expression profiling was assessed using Affymetrix HG-U133 plus 2 oligonucleotide arrays, and the splicing pattern was assessed by Jivan Biologics' splicing-sensitive microarrays. The former analysis was done three times and the latter was done twice with total RNAs isolated from separate experiments. We also examined the gene expression profile once in the control subline, A2780/LUCsi, grown with or without DOX.
However, in A2780/PTBsi3 cells treated with DOX (i.e. PTB knockdown), 52 genes were found consistently changed more than 2-fold in all three separate experiments. […] In total, we found 50 genes whose expression was regulated by PTB. […] We have validated these changes in a few of these genes (INHBE, CDC42, PTBP2 and PKP4) by real-time PCR or conventional RT-PCR.

Row | Molecule | tumor growth (A2780 sublines) | PTB downregulation (PTB; all three experiments) | genes consistently changed more than 2-fold (PTB; three separate experiments, signal intensity cutoff 200) [genes]
1 | B1 | grew slower | about 4 fold | 52
2 | B2 | grew slower |  | 
